Publication PMC5449603
Read-outs that look alike come from different tables or passages of the source.

B1: SµG (FAM) (structured_DNA)
DNA: GAGCTGGGGTGAGCTGGGCTGAGCTGGGGTGAGCTGGGCTGAGCT
B2: ssDNA (FAM) (ssDNA)
DNA: GGTGTGTGGAGCGTGCGTTT
B3: Duplex (FAM) (dsDNA)
DNA 1: GATACTATTGGGTGGGTAGGGTGGGTTTACATGT
DNA 2: ACATGTAAACCCACCCTACCCACCCAATAGTATC

How the values were obtained:
Assay in all cases: fluorescence anisotropy
Sub1 [1] = molecular target: T1, Sub1 (Saccharomyces cerevisiae, UniProt P54000 1-292)
T1 sequence: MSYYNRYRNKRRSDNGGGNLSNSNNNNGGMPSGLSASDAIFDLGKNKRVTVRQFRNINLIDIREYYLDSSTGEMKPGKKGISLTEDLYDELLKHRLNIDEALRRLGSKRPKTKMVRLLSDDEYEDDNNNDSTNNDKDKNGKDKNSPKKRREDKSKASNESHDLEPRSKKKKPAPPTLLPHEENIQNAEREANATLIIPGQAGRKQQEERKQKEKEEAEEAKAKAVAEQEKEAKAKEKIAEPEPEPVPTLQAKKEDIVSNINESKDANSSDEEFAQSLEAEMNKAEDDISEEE

PC4 (hSub1, p15) = PC4 (hSub1, p15) (human, UniProt P53999 1-127)
Sub1 [2] = molecular target: T1, Sub1; remark: listed apart in the source

Binder | Kd (Sub1 [1]) [nM] | Kd (PC4 (hSub1, p15)) [nM] | Kd (Sub1 [2]) [nM] | binding result (Sub1 [1])
B1 | 8.7 ± 1.7 |  |  | 
B2 |  | 9 ± 0.9 | 21.2 ± 1.1 | 
B3 |  | 38.7 ± 8 |  | no binding
